From patent US20250263469A1

Biological target: SARS-CoV-2 Spike on pseudotyped virus (PsV) (SARS-CoV-2) (UniProt P0DTC2)
Experiment: cell-based or functional assay

Row | Substance | Median IC50, SARS-CoV-2 PsV neutralization
1 | REGN10987 (recombinant mAb, reference IgG) (antibody) | 0.03 µg/mL
2 | REGN10933 (recombinant mAb, reference IgG) (antibody) | 0.0044 µg/mL
